Measurements reported in the DeepSol protein solubility set.

Assay: soluble on expression in E. coli; label from the status in PepcDB or PDB records

Sequence | soluble on expression in E. coli
MTNLFLCSLRFQFVVVCTRYDQSVGFSTEEHNIVEDASGFVTQHSSGSTLNESSRSCLQLVIVSQRNLEVYLGRDNVETLRKIGEANRGEFSKDFSVWCKTVFESMSNAYVSSLETEQSNVTSRVTRNIRPRTNEENRMQMEELQTAMQVERSVAASSSLSSSFDWNAFLRDRCGLSEEDVAYCLPKLSFIGMIDLSGVTTEFLLKCGIDSPSLRLRIMLGIRQLLAK | not soluble
MTRTLASLFGPLQPMALAEDLAAPLLAMPIPEGAADPAAAARAPAAGPTVPDRFTVARGLAVVPVRGILTPNMAQYERWFGWATYHGLAETMAHLAASEDAAAIVLEIDSPGGLVCGIEAAAEAIAAAAAVKPVHALVSPLAASAAYWLASQASEIVMTPGAVAGSIGVALTAAAHVQPGANGAQIFEMSSRHARAKRPDASTEAGRAELQRSLDEAEAAFHAAVSAGRAIPAAELAARLSVTDDPQDGGATFRAPEAIRRGLADRIETRAAFYARLAARTAPKPRSPSRAFAARAAAAAALARS | not soluble
MKLSPVSAAVLSVLAAGFAHAETEPSHYEEVVVTANRIEQPLSEVAGSVAVLEGETLEKQGKTELYDALNQEPGVSVTGGAGRPQNITIRGMTGNRIAIVRDGIQSADGYGAADINDKYGRNTFSLSNVKQIQVVKGASSTLYGSGAIGGVVIIESKAPEDYLYHRDYYVDAALTYSGISNRYQGNHALAMRHGDGEALLTIDYWQGEETRNFNQDLYNREVDGYNLGFSHHYWLNDALRLKTHLEYFDDYAKRREGTSSIQKDDKWDLVSFYEYQRSQTRLASVGADYTANLSWMDTLEGKFYWRSTENITQTNRLMANDRSGAGILSYRRELRDEGFNDEALGATLNAQKEWQQGEWLHQFAYGMSVDGHDYQRPKSIRRMESSGDDLQADEPFAPAREYRFGVYGQDNLLLGDWTLAAGLRFDAQKLSPKNTDRIHGYKVVTMGSSEWSPSASISYQWHPEWNTYLSYNHGFRAPSYDKAYGASDHSFVPLTPFIIKPNNKLRAETSDSFELGSKYDNGQTQFYVAVFYSIFDNFIDVKQVGYDNATGSVIQQYQNIAGVKTYGAEMSVMHRLDDRWSVENKLGYVDGKDGENQYVRTLTPLEGSVQLNYQRERWDAYSRLNWASAMSRVPTCTTEQGKETECATTTGWVSWDIGLNYQWNAQLSASFNVVNLLDREYTRYQDVAGVTPSDTLYSTEPGRYFTVHAKYVF | not soluble
MEVQFKNTRKGYYLNSERIELHKGDVVAVEANPGHDIGTVTLTGKLVKLQMRKHRYNTNNGEPFKIYRIAKQGDLDKYCEAKAREYDTMIQSRQISAELNLDMKIGDVEYQGDGNKAIFYYIADERVDFRQLIRVLAETFHIRVEMKQIGARQEAGRIGGIGPCGRQLCCSAWKMNFVSVNTSAARYQDLALNPQKLTGLCAKLKCCLNYEVDAYVEARKKMPSPEIVLETKESAYHYFKADVFRREVSYSTVPNAPVNLTTISARRAFEVISQNKQGFKPVSLEYDDKKQSSGHELSDILTDNSLTRFDDALSRRRRRNGNGNRDFSDREKAGEPHRTPDSIQPTPRVRSSSRMPSREKSPRPEGGDRRENMRERSRGDARFARPYTNEGGSERMEGARRVVGSGRRPPRQSTPRQEDRQGERKEELEHHHHHH | soluble
MHHHHHHSSGVDLGTENLYFQSMGNKYIQQTKPLTLERTINLYPLTNYTFGTKEPLYEKDSSVAARFQRMREEFDKIGMRRTVEGVLIVHEHRLPHVLLLQLGTTFFKLPGGELNPGEDEVEGLKRLMTEILGRQDGVLQDWVIDDCIGNWWRPNFEPPQYPYIPAHITKPKEHKKLFLVQLQEKALFAVPKNYKLVAAPLFELYDNAPGYGPIISSLPQLLSRFNFIYN | soluble
MGSDKIHHHHHHMHLLFPEVCILCQKPLGEGEEHICAGCFNDFNPFPSVLAGGAALKSTVRAHFGEKAVPAAAWCLYPYRSRGSLHEAMHAMKYGGLFPLGELFGKRLGELICQGGVPVGFDAIVPVPLHHLKRIERTYNQAEALARGMAGLIGLPVATRSLERCVYTGTQTGLGLEARRENMAGAFRPGRERCPARVLLVDDVLTTGATMVSAAKVLKAAGAVEVAFATVALTEKE | not soluble
MNLVELGSKTAKDGFKNEKDIADRFENWKENSEAQDWLVTMGHNLDEIKSVKAVVLSGYKSDINVQVLVFYKDALDIHNIQVKLVSNKRGFNQIDKHWLAHYQEMWKFDDNLLRILRHFTGELPPYHSNTKDKRRMFMTEFSQEEQNIVLNWLEKNRVLVLTDILRGRGDFAAEWVLVAQKVSNNARWILRNINEVLQHYGSGDISLSPRGSINFGRVTIQRKGGDNGRETANMLQFKIDPTELFDI | soluble
MYRVFECFDELIDILEKSTGVPMTSNCMVPRHHMLALIDEARNALPNEIDDAQDVIDQQDEILRGAQERARTTIDEANEEARRTVTQSREEADALVADAEEHAERVVRQAQDEADRLVDGARREADDTVNRAQAEAERLIASGNDQYQRSVDDGLAEQQRLVSEAEVVRRANEEAHRVVDAAHADSNRLRKECDTFVENKLADLEESLSSTLRTISRDRAALRRGAGASGGGNHSQS | not soluble
MDESNVSQELLNSNRTEIARCVLLKDLVVMYGGYEVYANHVDLLMCFHQLMIVLAAPPIKPMQKEPGTLLPPRAVVYKLPAIKGSMKDAFSAHKLLKKSYAKPIVDISSTSGDSDPEWWSDRELTPDLNLKRELLLKKARFSRKTFDKRSSYIAHFKKSHLENYLNSDSDTVSNEKPKTLAQLKNFSKSNLVEYHPSMYRDVGVVIIFFSIYYYDLNSFKVNSEIEKQDKIFQEYKKWIFQSVQERRFVSKECTEPKVLSQLHVHVHQN | not soluble
MEFKLHNGSGGLCCKSCSRQDKKLNTYDWLADIPGNAEESDMVEVQFKNTRKGYYRNSNKIKLEKGDIVAVEATPGHDIGTVTLTGRLVPLQMKKANFKQDAEIKRIYRKAKAVDMEKYEEAKAKEHTTMIRARQIAASLNLDMKIGDVEYQGDGNKAIFYYIADERVDFRQLIKVLAEAFRVRIEMKQIGARQEAGRIGGIGPCGRELCCATWMTSFVSVSTSAARYQDISLNPQKLAGQCAKLKCCLNYEVDCYVEAQKRLPSREIELETKDGTYYFFKADILSNQISYSTDKNFAANLVTISGKRAFEVIGLNKRGIKPDSLLEAERKPEPKKPVDLLEQESLTRFDRDRRRNAKDGNGKDEGGNGNRKKKKKNNNHPQQATNGETQSSQPTPINAQENNGSQPVQNQQRTRGERPKNNNRNNNQPRKNNESREPRSNENRETRKNEPREQRPPREPRGPRNNEQPKRIEKAQENEKPAQELEHHHHHH | not soluble
MALREFSSVKVGDQLPEKTYPLTRQDLVNYAGVSGDLNPIHWDDEIAKVVGLDTAIAHGMLTMGIGGGYVTSWVGDPGAVTEYNVRFTAVVPVPNDGKGAELVFNGRVKSVDPESKSVTIALTATTGGKKIFGRAIASAKLA | soluble
SNAMADGIYGSFENLKKHAGTMTLEAYMRFSAKLSEAKDEMGTKEYEVFTKELKKLTNAKLAYGDANGNIDYDALSPEKREEMKTVSMGLQPYFDKLNGHKSSKEVLTQEEFDRYMEALMTHEIVRVKTKSTGAIKVEEVPEAYKERFMKAEQFMEYVDEKVR | soluble
MGIKGDKKATSDQARLARLTLEGNSGNEEDIQFMIKTIIETTGCTQAQAEIALLDTDNNLYGAIDHILDAGDKLDSWTEQKGAKKEKKKPEEGSYNNRGFVARGRGGGTGFVDRGGRGRSNGAPRESRDNNRDNRDNKEGAAPRSTRGGFEKPYVGRGGRGGARGGYSRAVAPSSALEPDAFTADLDENQTKVDTTVTEVQPPVEESVTATVPTSSAPAPISFAAVAAAAHRKEALRKHQAQNPQPAAPPRRSLSPQPPLPSVAPVKEEPAAAPVFFEPETSHQPEKEDGFFQNESSVLAEEQTPNVSTHHDENVQSTPEPNQAWTTQLKTDLGIGLSEAPGLGLSPIPSAAPVQIIPDPGVEFVGTTAPTNIHDYSFGFVEAAPSPQLPSTESSAASISNASENIFNSSRIMPKQVEPERTSIPNGDYNLKSTSPPLSYGQSNRGLSYDTSSASYQPTDRMAPNKFNNSGPLPTQQSAQQHQPQQQQQQAPQQPVQQQQQTPPAQSQPTGHPQQHPHMMFTQQLPYAPYMNNYMNMYNPMPGVRDEQYTAALMQYGMGVDLTSLLPTAPLSQAASAQQVQSGQQRETHGLMDFNKFGSQSSRDQQPQQASNVGPPPGFQATNYMQQPNLSSLFMQQYSPAPHQFTPFMNMMPNVGSSAGGRQLYGQDDERKSYDKMSGSKPAAQQNQHSQYQHNGGNLGKYGMNKPYNWSN | not soluble
MGSDKIHHHHHHMSTALFHHHSTLQDQLVAIHAALRASLPDIDRIAVAIYDTKTDALHTFIHSSDGRHPLDSYATTLTGVPSLAALATSGRIRVLNDLSPLALTGAHHTQVIAKAYRSSLTVPFYKGKALSGFLFFNSQQPDYFTSRRIDTLALAAEMICSRVIDTVISVEMLTSTIQIAKDISHFRDEETGAHLDRVANYARLIAETMGKEPSALPPGRHPVLDDEFAQMIFLFAPLHDIGKVAIPDHVLLKPGPLTPEERTIMRTHSDKGLAICRRILENVDFISGTQAAMLCDIVHAHHEAWDGSGYPRGLSGADIPLAAAIVTVADVFDALTSARPYKKPWSTEDAFAYLQEKSGQLFNPACVRAFLAHRDDVLAIRARFRDEVIPEAFQTPQTPQSKADKV | not soluble
MKMNPRCTYCLLSRVHFQSKLSTDDEDLISRTIHECLGVMNKHYSPEAVSSRVATKVHRKCYEVLRDSDPYEVTKKLINQAALKVLPAAKEKIYENSPDDGELFKRAVLASVIANYFDFGIMGFDASEDKFEAAFLKYYEQGLDVDDTPEMLGLLQDVVYIADNCGEILFDAIVFDVIKKLGGNITLVVRGGPILTDVTLEEIKEFEIDKKVDRVMTTGSNAVGVLVEEAPAELLDAMKNATLIISKGMANYETLSEHNFGPIAYMLLTKCECVAEDLGLETGLSVAKLMNFPLEHHHHHH | soluble
MSLQKELARNQHLAERLLETEESVRRDVARELHDDIGQTITAIRTQAGIVQRLAADNASVKQSGQLIEQLSLGVYDAVRRLLGRLRPRQLDDLTLEQAIRSLMREMELEGRGIVSHLEWRIEESALSENQRVTLFRVCQEGLNNIVKHADASAVTLQGWLQDERLMLVIEDDGSGLPPGSGQQGFGLTGMRERVTALGGTLTISCLHGTRVSVSLPQRYVEGHHHHHH | soluble
MAHHHHHHMSELQAAAGVFGRGTAAGDAIYRCYARPTKESTLDPELLARLQKMRLEREAAEAALFRPKPVPKSKAMISRPRVGLGRRISEEEIARRRLDALPHKKREESIQRELRAFGRPSLLPPLYKSPPITVAEKERLRQIFQFGELPPKPLNFTGANRVRYALIDRRFRLKDRFETLKKHVDALREELRQLRQQPQKSALPETVADGKGNENEIIPSGAEIIRRFHRRDPVMALERRMLEQELTTSIGEVLQEMKEIDFDLRQLDENEAKRYIPKP | not soluble
MYAKSLNGDAFSNEAKQKAIELIKQDLGQIDLVVYSLASPVRKMPDTGELVRSALKPIGETYTSTAVDTNKDVIIEASVEPATEQEIADTVTVMGGQDWELWIQALEEAGVLAEGCKTVAYSYIGTELTWPIYWDGALGRAKMDLDRAATALNEKLAAKGGTANVAVLKSVVTQASSAIPVMPLYIAMVFKKMREQGVHEGCMEQIYRMFSQRLYKEDGSAPEVDDHNRLRLDDWELRDDIQQHCRDLWPQITTENLRELTDYDMYKEEFIKLFGFGIEGIDYDADVNPEVEFDVIDIE | not soluble
MAHHHHHHMKRWRTANLFTPAEVQHAFAALHRNAEALYSVSGTSSPLGPFVCRRGGARRHRRDHIELPLRHMYEAKTVYEQLPVEVRLICAGLYEAALGYAQEALREPGVSSAARDGILSNLGRNSVLRVLRYPAGSGCRPHVDPGLCTALLVGSAGGLEMSTTDAVLTPFASGPGHNTAHFVSSPTSMRGEAATMPGTLPHWEPVLTAHTGEAVVMAGNMLGAVSGGALPGVLHRVRRDWVAETPRTDGQRSPPLHAACVGGGADAEVDAGSGVFRFNVIVELRPAHAKRWYAATSGQSQLSSASSPSSLA | not soluble
